Data reported in patent publication US20170368119A1, “METHODS AND COMPOSITIONS FOR TREATING C-MET ASSOCIATED CANCERS” (YEASTERN BIOTECH CO., LTD, priority 2014, published 2017).

Experiments:
HCC329 [1] = assay: wound healing migration assay, HCC329; assay type: cell-based, human
Method: The HCC cells were cultivated on 24-well plates accompanied with a wound healing culture insert until confluence followed by serum starvation of the cells for 24 hours and the culture insert were then removed. After appropriate treatments, pictures were taken under a phase contrast microscope at indicated times.
Cell numbers were counted, and the relative doubling times of the respective treated groups were determined by taking the data of the untreated group as 100%. […] Relative migration was analyzed quantitatively by taking the motility of untreated cells (Con) as 1.0.

HCC329 [2] = assay: HCC329 tumor development and metastasis in SCID mice model; assay type: in vivo; conditions: JNJ 0.5-2.0 nmole/g mouse, intraperitoneal twice a week, 2 months
Method: HCC329 cells (approximately 2×10^7) suspended in 100 μl Dulbecco's Modified Eagle Medium (DMEM; Gibco, Grand Island, N.Y., USA) were directly injected into the subserosa of the middle liver lobe of the SCID mice, followed by intraperitoneal administration twice a week with DMEM as a vehicle, vehicle-containing FIP-gts (4.0-20 μg/g mouse) or JNJ (0.5-2.0 nmole/g mouse).
The mice were sacrificed 2 months after injection. Tumor mass was measured and the occurrence of intrahepatic metastasis and/or extrahepatic metastasis was recorded. Nodules with diameter of more than 0.1-0.2 cm observed on the left or right lobes were recognized as secondary tumor foci. […] Extra-hepatic metastasis was defined to be the case where the tumors appearing in organs other than liver such as in intestine. During the animal experiment, the regulations relevant to the care and use of laboratory animals were followed. This was approved by the Institutional Animal Care and Use Committee (IACUC) in Tzu Chi University (No. of consent form: 102080).

HCC372 [3] = assay: wound healing migration assay, HCC372; assay type: cell-based, human; conditions: JNJ 26.5 nM, 48 hours
Method: The HCC cells were cultivated on 24-well plates accompanied with a wound healing culture insert until confluence followed by serum starvation of the cells for 24 hours and the culture insert were then removed. After appropriate treatments, pictures were taken under a phase contrast microscope at indicated times. Quantitative analysis of motility of the HCC cell lines described in Example 1 was performed by directly counting the cells migrating into the blanking area at 48 hours using Image J. Software available from the NIH website. In general, motilities of the mesenchymal HCCs were higher than those of the epithelial ones.
The most motile HCC cell lines identified in Example 2, namely HCC372 and HCC329, were employed for testing the molecular and cellular effects of FIP-gts on HCC, in comparison with those of JNJ-38877605 (abbreviated hereafter as JNJ), which is an ATP-competitive inhibitor for the catalytic activity of c-Met. In the cell proliferation assay, HCC329 and HCC372 cells were untreated or treated with FIP-gts (prepared in Example 4) at 0.5, 1.0 or 2.0 μg/ml for 72 hours. Cell numbers were counted, and the relative doubling times of the respective treated groups were determined by taking the data of the untreated group as 100%. […] Relative migration was analyzed quantitatively by taking the motility of untreated cells (Con) as 1.0. […]

[4] = test system: p-JNK, p-ERK, p-AKT, p-EGFR in HCC329; assay: immuno-blotting of signaling molecules, HCC329; assay type: cell-based, human; conditions: within 4 to 16 hours, data not shown
From the text: To investigate the molecular mechanism of FIP-gts in suppression of tumor progression of HCCs, the effects of FIP-gts on the activity and/or quantity of the critical members present in c-Met dependent signaling pathway, including c-Met, phosphorylated c-Met (p-c-Met) and downstream effectors p-JNK and p-ERK, were examined in HCCs. […] Total proteins were harvested from the cells and subjected to immuno-blotting analysis using GAPDH as a loading control. Antibodies for p-c-Met, p-JNK, p-ERK and p-paxillin (S178), GAPDH and ERK were purchased from Santa Cruz Biotechnology (California, USA). The band intensities on the blots were quantified with Image J. Software. Relative band intensity of each molecule was calculated, taking the data of untreated HCC372 or HCC329 as 1.0.

HCC372 [5] = assay: MTT cell viability, HCC372; assay type: cell-based, human; conditions: 48 hours
Method: (§1) HCC372 and HCC329 cell lines established in Example 2 were cultured in 24-well plates at 1×10^5 cells/well in Dulbecco's Modified Eagle Medium (DMEM; Sigma, St. Louis, Mo., USA) supplemented with 1% heat-inactivated fetal bovine serum (FBS; Gibco, N.Y., USA) in the presence or absence of FIP-gmi, FIP-fve and FIP-vvo prepared in Example 4 at 1, 2.5 and 5 μg/ml for 48 hours. The supernatant was removed and 25 μl per well of 2.5 mg/ml MTT (3-[4,5-dimethylthiazol-2-yl]-2,5-dipheyltetrazolium bromide; Sigma Chemical Co., St. Louis, Mo., USA) in phosphate-buffered saline (PBS) was added. The plates were incubated at 37° C. for 1 hour to allow the transformation of MTT into water-insoluble formazan crystals. Then, the supernatant was removed and dimethyl sulfoxide (DMSO) was added to all wells and mixed thoroughly to dissolve the dark blue crystals. After a few minutes at room temperature to ensure that all crystals were totally dissolved, the plates were read at 570 nm. Relative survival rate was calculated by taking the number of untreated cells (Con) as 100%. The results are shown in FIGS. 6A and 6B, where the data were representative of 4 reproducible experiments.

HCC329 [6] = assay: MTT cell viability, HCC329; assay type: cell-based, human; conditions: 48 hours
Method: as §1

[7] = test system: c-Met, p-c-Met and p-JNK in HCC372; assay: western blotting of c-Met dependent signaling (Example 10), HCC372; assay type: cell-based, human; conditions: HCC372 (HGFR-positive)
Method: To investigate the molecular mechanism of FIP-gts in suppression of tumor progression of HCCs, the effects of FIP-gts on the activity and/or quantity of the critical members present in c-Met dependent signaling pathway, including c-Met, phosphorylated c-Met (p-c-Met) and downstream effectors p-JNK and p-ERK, were examined in HCCs. HCC329 and HCC372 cells were treated with FIP-gts (2 μg/ml) for 4 or 24 hours. Total proteins were harvested from the cells and subjected to immuno-blotting analysis using GAPDH as a loading control. Antibodies for p-c-Met, p-JNK, p-ERK and p-paxillin (S178), GAPDH and ERK were purchased from Santa Cruz Biotechnology (California, USA). The band intensities on the blots were quantified with Image J. Software. Relative band intensity of each molecule was calculated, taking the data of untreated HCC372 or HCC329 as 1.0. The results were shown in FIGS. 5A and 5B, in which (**) (##) and (*) (#) represent statistical significance (p<0.005 and p<0.05, respectively, n=3) between the indicated inhibitor-treated sample and untreated HCC329 or HCC372 control group.
The experiments described in Example 7 were repeated, except that FIP-gts was replaced with FIP-gmi, FIP-fve and FIP-vvo for treating HCC329 and HCC372. […] In addition, since c-Met was not substantially expressed in HCC329, the inhibitory effects of FIP-gmi, FIP-fve and FIP-vvo on HCC329 must be exerted through blockage on a c-Met independent signaling, such as EGFR-dependent signaling pathway.

HCC329 [8] = assay: transwell migration assay, HCC329; assay type: cell-based, human; conditions: FIP-fve 10 μg/ml, 48 hours
Method: (§2) Further, the effects of the three FIPs on migration of both HCC cells were examined. HCC372 and HCC329 cells were seeded on a 24-well transwell migration insert (Nalge Nunc International Corp., Rochester, N.Y., USA) in a complete medium for 24 hours. After treatment with FIP-gmi (3 μg/ml), FIP-fve (10 μg/ml) and FIP-vvo (2.5 μg/ml) for 48 hours, cells that had migrated to the underside of the insert membrane were stained with 0.3% crystal violet. The cells on the topside of the insert membrane were rubbed with a cotton swab. The migrated cells on the underside were imaged using phase contrast microscopy with 200× magnification.

HCC372 [9] = assay: transwell migration assay, HCC372; assay type: cell-based, human; conditions: FIP-fve 10 μg/ml, 48 hours
Method: as §2

Row | Molecule | suppression of cell migration (HCC329 [1]; JNJ, 48 hours) | secondary tumors on liver lobes (intra-hepatic metastasis) (HCC329 [2]) | tumor progression of HCC329 (HCC329 [2]) | suppression of cell migration (HCC372 [3]) | suppression of cell migration by EGFR inhibitors (HCC329 [1]; wound healing assays, data not shown) | reduction of the level of p-JNK by EGFR inhibitors [4] | suppression of growth (MTT) (HCC372 [5]; 2.5 μg/ml) | suppression of growth (MTT) (HCC372 [5]; 5 μg/ml) | suppression of growth (MTT) (HCC329 [6]; 2.5 μg/ml) | suppression of growth (MTT) (HCC329 [6]; 5 μg/ml) | effect on c-Met [7] | effect on p-JNK [7] | effect on p-c-Met [7] | suppression of cell migration (transwell) (HCC329 [8]) | suppression of cell migration (transwell) (HCC372 [9])
1 | Cn1cc(-c2ccc3nnc(C(F)(F)c4ccc5ncccc5c4)n3n2)cn1 [JNJ-38877605, reference compound] | 15% | secondary tumors were observed on left and right liver lobes | not prominent | 50% |  |  |  |  |  |  |  |  |  |  | 
2 | Cc1cc(C)c(/C=C2\C(=O)Nc3ccccc32)[nH]1 [SU5416, reference compound] |  |  |  |  | 80% | 30% |  |  |  |  |  |  |  |  | 
3 | FIP-vvo: fungal immunomodulatory protein from Volvariella volvacea, SEQ ID NO: 3 (protein, listed as Volvariella volvacea) STDLTQLLFFIAYNLQKVNFDYTPQWQRGNPSSYIDAVVFPRVLTNKAYQYRVVTGDKDLGIKPSYSVQADGSQKVNLLEYNGGYGVADTTTIKIYVVDPSNGNQYLIAQWK |  |  |  |  |  |  | 48% | 96% | 54% | 95% | significantly suppressed | significantly suppressed | significantly suppressed |  | 
4 | FIP-gmi: fungal immunomodulatory protein from Ganoderma microsporum, SEQ ID NO: 6 (protein, listed as Ganoderma microsporum) MSDTALIFTLAWNVKQLAFDYTPNWGRGRPSSFIDTVTFPTVLTDKAYTYRVVVSGKDLGVRPSYAVESDGSQKINFLEYNSGYGIADTNTIQVYVIDPDTGNNFIVAQWN |  |  |  |  |  |  | 23% | 96% | 23% | 94% | significantly suppressed | significantly suppressed | significantly suppressed |  | 
5 | FIP-fve: fungal immunomodulatory protein from Flammulina veltipes, SEQ ID NO: 2 (protein, Flammulina Velutipes) SATSLTFQLAYLVKKIDFDYTPNWGRGTPSSYIDNLTFPKVLTDKKYSYRVVVNGSDLGVESNFAVTPSGGQTINFLQYNKGYGVADTKTIQVFVVIPDTGNSEEYIIAEWKKT |  |  |  |  |  |  | 13% | 13% | 18% | 22% | significantly suppressed | significantly suppressed | significantly suppressed | marginally suppressed | marginally suppressed
